Assay [1] addresses T1, binary complex of FGFR1c ligand-binding domain with αKlotho ectodomain (murine; human, UniProt P11362 142-365).
T1 construct: range 142-365; also called αKlotho-FGFR1c complex; binary αKlotho-FGFR1c complex; not shown: C-terminal FLAG tag
T1 sequence 1: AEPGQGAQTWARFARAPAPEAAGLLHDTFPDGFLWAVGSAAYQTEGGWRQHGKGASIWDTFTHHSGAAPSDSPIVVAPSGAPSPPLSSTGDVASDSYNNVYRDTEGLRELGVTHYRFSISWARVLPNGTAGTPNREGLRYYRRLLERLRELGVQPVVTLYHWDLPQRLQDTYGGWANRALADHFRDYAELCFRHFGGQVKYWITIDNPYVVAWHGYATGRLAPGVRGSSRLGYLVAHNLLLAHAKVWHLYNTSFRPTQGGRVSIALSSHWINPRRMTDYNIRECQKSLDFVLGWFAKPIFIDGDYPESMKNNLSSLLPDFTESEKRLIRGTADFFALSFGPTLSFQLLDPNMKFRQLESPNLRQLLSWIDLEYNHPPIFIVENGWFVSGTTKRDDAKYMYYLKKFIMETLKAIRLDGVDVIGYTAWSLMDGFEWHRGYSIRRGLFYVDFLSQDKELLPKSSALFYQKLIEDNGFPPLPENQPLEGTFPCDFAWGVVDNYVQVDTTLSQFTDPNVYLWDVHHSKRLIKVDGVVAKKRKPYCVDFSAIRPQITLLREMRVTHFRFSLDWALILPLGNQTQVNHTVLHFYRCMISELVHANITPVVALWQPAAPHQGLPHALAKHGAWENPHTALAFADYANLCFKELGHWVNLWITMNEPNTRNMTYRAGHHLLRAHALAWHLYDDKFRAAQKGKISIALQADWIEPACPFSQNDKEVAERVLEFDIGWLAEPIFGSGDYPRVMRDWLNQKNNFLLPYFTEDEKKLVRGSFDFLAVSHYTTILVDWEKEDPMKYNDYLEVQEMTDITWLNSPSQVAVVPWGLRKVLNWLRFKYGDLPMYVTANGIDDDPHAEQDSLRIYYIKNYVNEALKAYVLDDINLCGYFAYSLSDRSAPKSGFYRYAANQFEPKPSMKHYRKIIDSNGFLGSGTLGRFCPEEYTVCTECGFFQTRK
T1 sequence 2: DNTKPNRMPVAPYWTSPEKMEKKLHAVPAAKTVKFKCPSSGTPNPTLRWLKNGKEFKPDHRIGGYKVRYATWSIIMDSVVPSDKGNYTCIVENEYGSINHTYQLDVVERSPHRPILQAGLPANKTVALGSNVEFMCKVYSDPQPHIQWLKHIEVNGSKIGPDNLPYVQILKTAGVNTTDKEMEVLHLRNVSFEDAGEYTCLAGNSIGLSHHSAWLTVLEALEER
Briefly: SPR: immobilized FGF23; αKlotho-FGFR1c complex (FIG. 10E) against FGFR1c ligand-binding domain alone (FIG. 10D). The source says: (§1) FIGS. 10A-10D show overlays of SPR sensorgrams illustrating binding of FGFR1c to FGF2 (FIG. 10A), FGF19 (FIG. 10B), FGF21 (FIG. 10C), and FGF23 (FIG. 10D), and fitted saturation binding curves. Increasing concentrations of FGFR1c ligand-binding domain were passed over a biosensor chip containing immobilized FGF2, FGF19, FGF21, or FGF23. […] Increasing concentrations of αKlotho-FGFR1c complex were passed over a biosensor chip containing immobilized FGF23. […] FGF23^C-tail was immobilized on a biosensor chip and increasing concentrations of FGFR1c ligand-binding domain were passed over the chip. Dissociation constants (KDs) given in FIGS. 10A-10E were derived from the saturation binding curves.
In the target tissue, Klotho co-receptors constitutively associate with cognate receptors of endocrine FGFs to offset the inherently low receptor-binding affinity of endocrine FGFs (FIGS. 10B-10D; Kurosu et al., J. Biol. Chem. 282:26687-26695 (2007); Kurosu et al., J. Biol. Chem. 281:6120-6123 (2006); Ogawa et al., Proc. Nat'l. Acad. Sci. U.S.A. 104:7432-7437 (2007); Urakawa et al., Nature 444:770-774 (2006), which are hereby incorporated by reference in their entirety). […]
In general terms: Surface plasmon resonance follows binding to a sensor surface in real time, without labels.

Assay [2] concerns the target T2, binary complex of FGFR1c ligand-binding domain with αKlotho ectodomain (human, UniProt P11362 142-365).
T2 chain 1: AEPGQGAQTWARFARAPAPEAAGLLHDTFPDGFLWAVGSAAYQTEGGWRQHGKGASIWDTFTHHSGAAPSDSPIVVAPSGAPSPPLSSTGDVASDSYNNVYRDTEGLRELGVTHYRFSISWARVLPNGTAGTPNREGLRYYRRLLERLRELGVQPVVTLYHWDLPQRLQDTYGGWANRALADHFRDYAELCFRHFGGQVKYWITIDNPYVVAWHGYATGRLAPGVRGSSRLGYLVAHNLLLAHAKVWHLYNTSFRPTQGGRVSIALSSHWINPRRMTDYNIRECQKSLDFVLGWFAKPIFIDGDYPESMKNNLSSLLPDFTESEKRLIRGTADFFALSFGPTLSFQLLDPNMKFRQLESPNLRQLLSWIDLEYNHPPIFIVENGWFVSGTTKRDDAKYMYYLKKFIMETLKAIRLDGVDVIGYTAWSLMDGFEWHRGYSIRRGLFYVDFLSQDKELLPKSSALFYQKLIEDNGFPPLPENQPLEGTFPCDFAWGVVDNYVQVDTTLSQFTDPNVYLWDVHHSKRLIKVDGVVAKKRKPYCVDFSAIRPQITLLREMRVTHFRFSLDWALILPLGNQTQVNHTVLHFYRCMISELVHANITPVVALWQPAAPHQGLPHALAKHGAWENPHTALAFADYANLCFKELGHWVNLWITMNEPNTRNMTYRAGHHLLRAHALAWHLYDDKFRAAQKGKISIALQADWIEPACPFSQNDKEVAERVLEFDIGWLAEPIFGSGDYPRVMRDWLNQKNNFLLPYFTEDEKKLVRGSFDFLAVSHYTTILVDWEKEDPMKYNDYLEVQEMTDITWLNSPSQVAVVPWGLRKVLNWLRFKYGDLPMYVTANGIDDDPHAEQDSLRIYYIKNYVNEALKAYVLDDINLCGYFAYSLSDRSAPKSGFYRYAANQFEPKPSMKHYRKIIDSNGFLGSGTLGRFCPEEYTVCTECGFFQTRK
T2 chain 2: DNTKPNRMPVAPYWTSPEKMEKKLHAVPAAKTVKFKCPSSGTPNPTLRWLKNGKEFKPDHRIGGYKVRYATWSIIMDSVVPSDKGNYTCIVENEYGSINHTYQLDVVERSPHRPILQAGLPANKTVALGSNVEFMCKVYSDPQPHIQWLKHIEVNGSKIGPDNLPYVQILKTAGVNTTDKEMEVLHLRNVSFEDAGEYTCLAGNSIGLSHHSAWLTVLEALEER
Briefly: SPR.

In assay [3] the target is T3, ligand-binding domain of human FGFR1c (D142 to R365) (human, UniProt P11362 142-365).
T3 chain: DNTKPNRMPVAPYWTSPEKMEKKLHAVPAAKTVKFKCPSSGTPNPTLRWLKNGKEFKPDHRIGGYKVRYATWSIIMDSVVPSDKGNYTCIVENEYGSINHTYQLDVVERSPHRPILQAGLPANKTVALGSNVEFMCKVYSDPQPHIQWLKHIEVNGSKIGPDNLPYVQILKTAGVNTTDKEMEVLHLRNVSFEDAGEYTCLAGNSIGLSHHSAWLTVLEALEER
Briefly: SPR.

The target in assay [4] is T4, ligand-binding domain of human FGFR1c (D142 to R365) (human, UniProt P11362 142-365).
T4 construct: range 142-365
T4 sequence (looked up): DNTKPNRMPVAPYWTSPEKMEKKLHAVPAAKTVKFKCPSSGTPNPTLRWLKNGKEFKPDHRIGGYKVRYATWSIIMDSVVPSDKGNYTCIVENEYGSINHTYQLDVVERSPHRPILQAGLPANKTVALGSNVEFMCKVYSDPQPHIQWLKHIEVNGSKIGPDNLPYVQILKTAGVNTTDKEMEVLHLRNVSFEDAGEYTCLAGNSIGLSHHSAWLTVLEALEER
In words: SPR: FGF23^C-tail immobilized on chip, increasing concentrations of FGFR1c ligand-binding domain passed over (FIG. 10F).
From the text: as §1

In assay [5] the target is T1, binary complex of FGFR1c ligand-binding …. Briefly: SPR competition: increasing chimera with a fixed concentration of αKlotho-FGFR1c complex over immobilized FGF23 (competitor). The source says: FIGS. 7A and 7B show overlays of SPR sensorgrams illustrating inhibition by FGF2^ΔHBScore-FGF23^C-tail (FIG. 7A) or FGF23 (FIG. 7B) of αKlotho-FGFR1c binding to FGF23 immobilized on a biosensor chip. Increasing concentrations of FGF2^ΔHBScore-FGF23^C-tail or FGF23 were mixed with a fixed concentration of αKlotho-FGFR1c complex, and the mixtures were passed over a FGF23 chip. […] FGF2 and αKlotho-FGFR1c complex were mixed at a molar ratio of 15:1, and the mixture was passed over a biosensor chip containing immobilized FGF23. FIGS. 7D and 7E show overlays of SPR sensorgrams illustrating no inhibition by FGF2^ΔHBScore-FGF23^C-tail (FIG. 7D) or FGF23 (FIG. 7E) of βKlotho-FGFR1c binding to FGF21. FGF2^ΔHBScore-FGF23^C-tail or FGF23 were mixed with βKlotho-FGFR1c complex at a molar ratio of 10:1, and the mixtures were passed over a biosensor chip containing immobilized FGF21. […] Wild-type mice and αKlotho knockout mice were given 0.21 mg and 0.51 mg of protein, respectively, per kg of body weight. Data are presented as mean±SEM; **, P<0.01; ***, P<0.001 by ANOVA. […]
To determine whether the FGF2^ΔHBScore-FGF23^C-tail and FGF2^ΔHBScore-FGF21^C-tail chimeras gained the ability to signal in a Klotho co-receptor-dependent, endocrine fashion, it was first analyzed whether these chimeras can form ternary complexes with FGFR1c and Klotho co-receptor. […]

Assay [6] deals with T4, ligand-binding domain of human FGFR1c …. In words: SPR: FGFR1c ligand-binding domain over immobilized FGF21 (FIG. 10C).
From the text: as §1

B1: N-terminally hexahistidine-tagged, mature form of human FGF23 (Y25 to I251) with arginines 176 and 179 replaced with glutamine (ligand)
chain: YPNASPLLGSSWGGLIHLYTATARNSYHLQIHKNGHVDGAPHQTIYSALMIRSEDAGFVVITGVMSRRYLCMDFRGNIFGSHYFDPENCRFQHQTLENGYDVYHSPQYHFLVSLGRAKRAFLPGMNPPPYSQFLSRRNEIPLIHFNTPIPRQHTQSAEDDSERDPLNVLKPRARMTPAPASCSQELPSAEDNSPMASDPLGVVRGGRVNTHAGGTGPEGCRPFAKFI
notes: also called native FGF23; wild-type FGF23; not shown: N-terminal hexahistidine tag
On to B1, for which the “fold enhancement of the affinity of FGF23 for FGFR1c by αKlotho (against FGFR1c alone)” value in assay [1] was more than 20 fold. The Kd – broadly, the equilibrium constant for the complex coming apart – amounted to 27.4 nM in assay [2] and 648 nM in assay [3].

B2: N-terminally hexahistidine-tagged C-terminal tail peptide of FGF23 (S180 to I251) (peptide)
peptide: SAEDDSERDPLNVLKPRARMTPAPASCSQELPSAEDNSPMASDPLGVVRGGRVNTHAGGTGPEGCRPFAKFI
notes: also called FGF23^C-tail; not shown: N-terminal hexahistidine tag
Turning to B2, the binding result in assay [4] is reported as “no binding”.

B3: FGF2^ΔHBScore-FGF23^C-tail chimera (designed binder)
chain: MAAGSITTLPALPEDGGSGAFPPGHFKDPKRLYCKNGGFFLRIHPDGRVDGVREKSDPHIKLQLQAEERGVVSIKGVSANRYLAMKEDGRLLASKSVTDECFFFERLESNNYNTYRSRKYTSWYVALDQTGQYVLGSKTGPGQKAILFLPMRNEIPLIHFNTPIPRQHTQSAEDDSERDPLNVLKPRARMTPAPASCSQELPSAEDNSPMASDPLGVVRGGRVNTHAGGTGPEGCRPFAKFI
notes: Core domain of FGF2 (M1 to M151, K128D/R129Q/K134V, C78S/C96S) joined to the C-terminal region of FGF23 (R161 to I251, R176Q/R179Q)
For B3, in assay [5], the binding result was “binds”.

B4: N-terminally hexahistidine-tagged, mature form of human FGF21 (H29 to S209) (ligand)
chain: HPIPDSSPLLQFGGQVRQRYLYTDDAQQTEAHLEIREDGTVGGAADQSPESLLQLKALKPGVIQILGVKTSRFLCQRPDGALYGSLHFDPEACSFRELLLEDGYNVYQSEAHGLPLHLPGNKSPHRDPAPRGPARFLPLPGLPPALPEPPGILAPQPPDVGSSDPLSMVGPSQGRSPSYAS
notes: also called native FGF21; not shown: N-terminal hexahistidine tag
In the case of B4, in assay [6], the binding result is listed as “binds”. In assay [3], this molecule gave a Kd of 2520 nM.

The record behind these values is patent US20130331325A1 (NEW YORK UNIVERSITY, published 2013).
